Measurements taken from US11592453B2, “Personalized metabolomic profiling of specialized pro-resolving mediators” (THE BRIGHAM AND WOMEN'S HOSPITAL, INC., priority 2016, dated 2023).
Like-named read-outs stand apart in the source and are kept apart here. Positions of bridges follow the written chain, without caps; N, C: chain ends. Non-standard residues stand in square brackets, D forms with d. Residues, ends and D or L forms follow the SMILES beside them. hArg = N=C(N)NCCCC[C@H](N)C(=O)O; Mpa = O=C(O)CCS

B1: adenosine deaminase (protein, UniProt P00813 2-363, looked up)
Adenosine deaminase: AQTPAFDKPKVELHVHLDGSIKPETILYYGRRRGIALPANTAEGLLNVIGMDKPLTLPDFLAKFDYYMPAIAGCREAIKRIAYEFVEMKAKEGVVYVEVRYSPHLLANSKVEPIPWNQAEGDLTPDEVVALVGQGLQEGERDFGVKARSILCCMRHQPNWSPKVVELCKKYQQQTVVAIDLAGDETIPGSSLLPGHVQAYQEAVKSGIHRTVHAGEVGSAEVVKEAVDILKTERLGHGYHTLEDQALYNRLRQENMHFEICPWSSYLTGAWKPDTEHAVIRLKNDQANYSLNTDDPLIFKSTLDTDYQMTKRDMGFTEEEFKRLNINAAKSSFLPEDEKRELLDLLYKAYGMPPSASAGQNL
notes: human recombinant adenosine deaminase, removes adenosine

Experiments:
[1] = test system: clot-derived leukocytes and lymphocytes; test: Flow cytometric analysis of clots, cell viability (annexin V / PI); type: cell-based, human
Protocol: (§1) Human peripheral blood was collected from healthy individuals without anticoagulant and allowed to coagulate for 24 hours as described earlier. Clots were washed with phosphate-buffered saline (PBS) containing Ca2+ (0.9 mM) and Mg2+ (0.5 mM) and then gently homogenized and passed through a 70-micron filter. Clot-derived cells were stained for flow cytometric analysis. Cells were stained in FACS buffer (PBS with 1% BSA and 0.1% sodium azide). […] For viability assays, FITC-conjugated annexin V (BD) and propidium iodide (PI) were added to the cells according to the manufacturer's protocol. Samples were analyzed with a FACS Canto II flow cytometer (BD Bioscience) and FlowJo X Software.

[2] = as above; type: cell-based, human; conditions: human
Protocol: as §1

human blood clot = test: Clot volume after 24 hours of coagulation; type: cell-based; conditions: eptifibatide 20 μM, P<0.01
Protocol: (A to E) Freshly drawn human peripheral blood (4 ml) containing heparin (10 U/ml) was placed in polypropylene tubes (A) whereas human peripheral blood without anticoagulant was placed in silicone-coated tubes (B to E) and incubated at 37° C. for the time course of 0 to 24 hours (see Example 1, Materials and Methods). The samples were then subjected to snap-freezing for extraction and LC-MS/MS analysis. […] (B) Left: Combined concentrations of the total SPM cluster, prostaglandins, and thromboxanes after 24 hours of coagulation in the presence or absence of the αIIbβ3 inhibitor eptifibatide (Eptifib.; 20 μM). Middle: Clot volumes after 24 hours of coagulation of the indicated samples. Right: Representative clot images. Data are means±SEM of three individual donors.
Human whole blood was transferred in 4-ml aliquots to negatively charged, silicone-coated 10-ml tubes (BD) without anticoagulant. For experiments with heparin, the heparinized blood was placed in 15-ml polypropylene tubes before incubation at 37° C. For LM profiling at designated times, all samples were immediately subjected to a workup procedure by which whole blood was snap-frozen in a dry ice/isopropanol bath and were returned to room temperature (×3 cycles) before undergoing centrifugation at 100,000 g at 4° C.

[3] = test system: SPM production in human whole blood; test: SPM and eicosanoid production during coagulation with heparin, eptifibatide, ADA, celecoxib or BAI; type: cell-based
Protocol: FIG. 2 illustrates regulators of SPM formation in human blood. (A to E) Freshly drawn human peripheral blood (4 ml) containing heparin (10 U/ml) was placed in polypropylene tubes (A) whereas human peripheral blood without anticoagulant was placed in silicone-coated tubes (B to E) and incubated at 37° C. for the time course of 0 to 24 hours (see Example 1, Materials and Methods). The samples were then subjected to snap-freezing for extraction and LC-MS/MS analysis. (A) Concentrations of the members of the SPM cluster (identified in FIG. 1) in samples treated without (Coag.) or with heparin (10 U/ml) during the incubation period. Data are means±SEM of three individual donors. (B) Left: Combined concentrations of the total SPM cluster, prostaglandins, and thromboxanes after 24 hours of coagulation in the presence or absence of the αIIbβ3 inhibitor eptifibatide (Eptifib.; 20 μM). Middle: Clot volumes after 24 hours of coagulation of the indicated samples. Right: Representative clot images. Data are means±SEM of three individual donors. (C) Concentrations of total SPMs and of the indicated individual SPMs after 24 hours of coagulation in the presence or absence of 200 mU ADA. Data are means±SEM of three individual donors. *P<0.05, **P<0.01 by ratio t-test. (D) Top: LC-MS/MS measurements of adenosine concentrations in whole blood at the indicated time points during coagulation in the presence or absence of ADA. **P<0.01 when compared to the zero-hour time point. Bottom: Flow cytometric analysis of the percentage of neutrophil-platelet aggregates, which were defined as being double-positive for CD16 and CD42b, in whole blood allowed to coagulate for the indicated times in the absence (Coag.) or presence of ADA. Data are means±SEM of five individual donors. *P<0.05, **P <0.01 by student's t test. For dot plots and gating, see FIG. 7B. (E) MS/MS fragmentation profiles with diagnostic ions for the indicated SPMs identified in (C). (F) Left: PCA score plot. Red denotes +ADA for 1 hour; yellow, coagulation for 1 hour; green, coagulation for 24 hours; blue, +ADA for 24 hours. Right: PCA loading plot showing temporal clustering of the indicated mediators from three individual donors. Red denotes LM at 1 hour; blue denotes 24 hours with ADA).
FIG. 8 illustrates SPM formation in human blood clots being regulated by lipoxygenase activity. (A and B) Freshly drawn human peripheral blood (4 ml) was placed in silicone-coated tubes at 37° C. for 24 hours and coagulation was stopped by snap-freezing before LC-MS/MS analysis was performed. Concentrations of total SPMs, prostaglandins, and thromboxanes after 24 hours of coagulation (Coag.) in the presence or absence of (A) 100 μM indomethacin (Indo.) (n=six individual donors), (B) 500 nM celecoxib (CLX) or 20 μM BAI (n=three individual donors). […]

[4] = test system: neutrophil-platelet aggregates; test: Neutrophil-platelet interactions by flow cytometry; type: cell-based, human; conditions: with ADA
Protocol: Whole blood was collected from healthy individuals without anticoagulant and allowed to coagulate for 1, 6, or 24 h with or without ADA. Clots were washed with PBS and then gently homogenized and passed through a 70 micron-filter. Clot derived neutrophil-platelet interactions were analyzed by flow cytometry with FITC-conjugated anti-human CD16 antibody (clone ebio CB16), and PE-conjugated anti-human CD42b (clone HIP1). Neutrophils were identified by their cell surface expression of CD16 and high side and forward scatter. Platelets were identified based on their low side and forward scatter on a log scale and on their cell surface expression of CD42b. Neutrophil and platelet aggregates were identified as CD14-cells that were double-positive for CD42b and CD16 as CD14-,CD42b+,CD16+,SSChigh,FSChigh.

[5] = ADA, P<0.01
Protocol: Human blood was subjected to the same freeze-thaw procedure as was used for the metabololipidomics. After centrifugation at 1000 g at 4° C. for 5 min, supernatants were reconstituted with 4 volumes of methanol and kept on ice for 30 min to facilitate protein precipitation. Samples were then subjected to centrifugation at 1000 g at 4° C. for 5 min. Supernatants were reconstituted to <1% methanol and then taken to LC-MS/MS for identification and quantitation of adenosine by matched retention time with ≥99%, pure adenosine (Sigma) through MRM transition 268>136 for the protonated adenine fragment (54).

[6] = 24 h coagulation, n = 3, mean +/- S.E.M.

| Molecule | Early apoptosis [1] [%] | Late apoptosis [1] [%] | Necrotic [1] [%] | cell viability (in words) [1] | viability at 24 h [2] [%] | increase in clot volume (human blood clot) [%] | reduction of the total amount of the SPM cluster ([3]; eptifibatide 20 μM, 24 hours of coagulation, P<0.01) [%] | number of platelet-neutrophil aggregates during the time course of coagulation [4] | Early apoptosis [1, 6] [%] | Late apoptosis [1, 6] [%] | Live [1, 6] [%] | Necrotic [1, 6] [%] | cell viability (in words) ([1]; during coagulation) | time by which adenosine was cleared during coagulation [5] [h] | total SPM production vs. coagulation alone ([3]; 200 mU ADA, 24 hours) |
| --- | --- | --- | --- | --- | --- | --- | --- | --- | --- | --- | --- | --- | --- | --- | --- |
| N=C(N)NCCCC[C@@H]1NC(=O)CCSSC[C@@H](C(N)=O)NC(=O)[C@@H]2CCCN2C(=O)[C@H](Cc2c[nH]c3ccccc23)NC(=O)[C@H](CC(=O)O)NC(=O)CNC1=O [Eptifibatide, eptifibatide, reference compound] ([Mpa][hArg]GDWPC-NH2; disulfide 1-7) | 5.1 ± 1.9 | 2.0 ± 0.5 | 0.9 ± 0.1 | without reducing cell viability | 90.6 ± 1.3 | ~20 | ~50 | – | – | – | – | – | – | – | – |
| B1 | – | – | – | – | – | – | – | statistically significantly increased | 9.9 ± 2.9 | 5.8 ± 1.4 | 81.5 ± 0.5 | 2.7 ± 2.0 | Cell viability was not decreased | ≤ 1 | more than 8 times |
